Data on one molecule can be found in PMC6327505, “Adaption to glucose limitation is modulated by the pleotropic regulator CcpA, independent of selection pressure strength”.

The series has as its target T1, CcpA-Ile19 (evolved, 445C1) (Lactococcus lactis MG1363 (evolved …, UniProt A2RJC5 1-332, M19I)).
T1 sequence: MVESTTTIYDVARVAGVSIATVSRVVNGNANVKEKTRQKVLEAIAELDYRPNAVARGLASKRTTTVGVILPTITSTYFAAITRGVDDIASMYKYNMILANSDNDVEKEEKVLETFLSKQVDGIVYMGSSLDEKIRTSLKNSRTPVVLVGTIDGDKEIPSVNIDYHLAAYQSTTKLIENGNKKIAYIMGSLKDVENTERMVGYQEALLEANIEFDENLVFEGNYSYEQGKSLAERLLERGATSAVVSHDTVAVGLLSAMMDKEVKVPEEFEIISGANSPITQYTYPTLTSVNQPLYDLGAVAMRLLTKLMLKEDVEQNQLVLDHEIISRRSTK
The experiment in a line: EMSA; 100-800 nM CcpA, 4 nM DNA; affinity increased vs Met19, least pronounced; EMSA: 20 mM Tris-HCl pH 8, 100 mM KCl, 10 mM MgCl2, 1 mM EDTA, 1 mM DTT, 5% glycerol, 40 ug/ml BSA, 4 nM Cy3-DNA, 30 C 20 min; 7.5% native PAGE in TBE. Particulars: protein: recombinant; tags: N-terminal 6xHis (pQE30); chain copies: 2; label: 5'-Cy3 on (+) strand; blunt.

B1: mtlD cre (dsDNA)
DNA 1: ACCACAATGTAAAAGCTTACAATTGCT
DNA 2: AGCAATTGTAAGCTTTTACATTGTGGT
As to B1, the binding result is on record as “binds”.
